# Test results from patent publication US8431396B2, “Anti-angiogenic peptides” (The Cleveland Clinic Foundation, priority 2003, dated 2013).
# B1: recombinant human TIMP3 (tissue inhibitor of metalloproteinases-3) (other)
# chain: CTCSPSHPQDAFCNSDIVIRAKVVGKKLVKEGPFGTLVYTIKQMKMYRGFTKMPHVQYIHTEASESLCGLKLEVNKYQYLLTGRVYDGKMYTGLCNFVERWDQLTLSQRKGLNYRYHLGCNCKIKSCYYLPCFVTSKNECLWTDMLSNFGYPGYQSKHYACIRQKGGYCSWYRGWAPPDKSIINATDP
# notes: Radio-iodinated in some assays; also called rTIMP3; recombinant TIMP3
# What was measured:
# KDR = target: T1, KDR (Homo sapiens, UniProt P35968); test: [125I]VEGF binding to the surface of PAE-KDR cells; details: same conditions as TIMP3
# T1 construct: To determine whether these receptor isoforms represent full-length VEGFR-2; expressed in transfected cells; host or cells: porcine aortic endothelial (PAE) cells
# T1 sequence (P35968 20-1356): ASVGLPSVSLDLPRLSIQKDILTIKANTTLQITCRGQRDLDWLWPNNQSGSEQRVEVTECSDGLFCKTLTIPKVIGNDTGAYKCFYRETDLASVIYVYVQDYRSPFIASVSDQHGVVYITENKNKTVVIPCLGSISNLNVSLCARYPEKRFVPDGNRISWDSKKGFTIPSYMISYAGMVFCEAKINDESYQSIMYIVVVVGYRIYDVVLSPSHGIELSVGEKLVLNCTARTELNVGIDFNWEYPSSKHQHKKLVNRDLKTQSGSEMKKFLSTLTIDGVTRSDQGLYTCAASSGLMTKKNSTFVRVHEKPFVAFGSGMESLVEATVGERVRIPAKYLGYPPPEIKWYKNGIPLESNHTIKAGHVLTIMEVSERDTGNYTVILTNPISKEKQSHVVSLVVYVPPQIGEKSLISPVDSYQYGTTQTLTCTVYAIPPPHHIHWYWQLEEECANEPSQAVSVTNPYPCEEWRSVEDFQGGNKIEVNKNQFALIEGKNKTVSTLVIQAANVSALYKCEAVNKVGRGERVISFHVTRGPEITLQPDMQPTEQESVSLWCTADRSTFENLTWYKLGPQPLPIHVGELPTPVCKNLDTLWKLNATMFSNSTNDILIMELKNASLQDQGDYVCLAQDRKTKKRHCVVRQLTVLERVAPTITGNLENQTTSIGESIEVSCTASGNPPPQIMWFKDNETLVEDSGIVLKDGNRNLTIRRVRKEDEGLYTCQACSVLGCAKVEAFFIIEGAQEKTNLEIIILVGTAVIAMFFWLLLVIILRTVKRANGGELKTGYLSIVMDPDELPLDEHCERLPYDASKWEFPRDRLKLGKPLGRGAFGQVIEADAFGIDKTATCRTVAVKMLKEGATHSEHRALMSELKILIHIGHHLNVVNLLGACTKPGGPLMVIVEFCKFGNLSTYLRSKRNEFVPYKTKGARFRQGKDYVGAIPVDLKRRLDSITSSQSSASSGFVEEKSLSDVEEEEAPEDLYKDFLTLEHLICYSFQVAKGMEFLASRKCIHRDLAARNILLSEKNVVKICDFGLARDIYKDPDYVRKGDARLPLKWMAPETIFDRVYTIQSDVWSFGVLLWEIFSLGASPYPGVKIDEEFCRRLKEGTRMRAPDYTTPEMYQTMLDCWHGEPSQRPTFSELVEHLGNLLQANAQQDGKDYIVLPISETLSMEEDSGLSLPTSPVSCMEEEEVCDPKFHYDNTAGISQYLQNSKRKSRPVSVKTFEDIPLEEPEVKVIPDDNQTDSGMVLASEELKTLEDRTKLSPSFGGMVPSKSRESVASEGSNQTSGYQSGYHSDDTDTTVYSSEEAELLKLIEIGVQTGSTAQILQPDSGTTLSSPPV
# Experimental: Radioligand binding is expressed as percent binding and is the mean±s.e.m. of triplicate samples. […] All values are expressed as mean±s.e.m. of triplicate samples. […] Binding is expressed as mean±s.e.m.
# Data were analyzed by Scatchard plot analyses.
# KDR (VEGFR2) = KDR (VEGFR2) (Homo sapiens, UniProt P35968); test: ELISA of sKDR binding to VEGF-coated plates
# Sequence of KDR (VEGFR2) (P35968 20-764 limits assumed): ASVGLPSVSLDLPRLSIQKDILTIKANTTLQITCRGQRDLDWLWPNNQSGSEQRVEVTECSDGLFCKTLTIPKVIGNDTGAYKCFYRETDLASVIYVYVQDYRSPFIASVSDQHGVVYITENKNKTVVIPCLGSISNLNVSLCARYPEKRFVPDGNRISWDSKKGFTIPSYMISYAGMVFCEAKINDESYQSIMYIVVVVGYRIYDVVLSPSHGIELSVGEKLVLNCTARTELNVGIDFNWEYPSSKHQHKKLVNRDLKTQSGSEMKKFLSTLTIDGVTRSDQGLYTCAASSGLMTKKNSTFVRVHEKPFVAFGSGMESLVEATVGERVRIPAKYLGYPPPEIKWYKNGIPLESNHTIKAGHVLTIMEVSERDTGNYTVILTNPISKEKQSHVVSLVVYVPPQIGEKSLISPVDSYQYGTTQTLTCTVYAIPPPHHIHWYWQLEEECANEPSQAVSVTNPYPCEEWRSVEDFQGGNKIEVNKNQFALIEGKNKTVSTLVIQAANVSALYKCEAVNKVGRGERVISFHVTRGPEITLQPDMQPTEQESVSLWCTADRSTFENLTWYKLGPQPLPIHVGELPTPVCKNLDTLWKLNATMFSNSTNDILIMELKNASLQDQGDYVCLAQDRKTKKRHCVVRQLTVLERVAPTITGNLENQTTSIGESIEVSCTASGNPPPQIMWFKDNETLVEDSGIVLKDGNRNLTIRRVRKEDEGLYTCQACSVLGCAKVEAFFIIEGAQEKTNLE
# Experimental: In the assay, 96 well immunoplates were coated with VEG (80 ng/ml) as per standard procedures.
# [1] = system: Choroidal Neovascularization (CNV); test: Laser-induced choroidal neovascularization (CNV) mouse model of AMD; assay type: in vivo, C57BL6 mice; details: single intravitreal injection on day 3; examined 14 days after laser
# Experimental: We next tested the ability of intravitreal TIMP-3 tail and loop 6 peptide to inhibit Choroidal Neovascularization (CNV), a mouse model of age-related macular degeneration (AMD). C57BL6 mice (n=5) in each each group were lasered to induce CNV. On day 3 intravitreal injections [single dose] of control N terminal peptide (116) or TIMP-3 peptides (Tail peptide (SEQ ID NO: 13), Loop 6 (SEQ ID NO: 12), and Loop 5 (SEQ ID NO: 11) were administered. Animals were sacrificed at 14 days following laser and whole mount retinas were examined for evidence of CNV following injection of fluorescein dextran marker.
# PAEKDR cells [2] = test: VEGF-stimulated migration (modified Boyden chamber) of transfected PAEKDR cells; assay type: cell-based, porcine; details: mock cells
# Experimental: A modified Boyden chamber assay was carried out as described previously 34. Briefly, 8.0 μm pore PVPF polycarbonate membranes were pre-coated with 100 μg/ml collagen type I in 0.2 N acetic acid (Cohesion technologies, INC. Pala Alto, Calif.). […] Chamber was then incubated for 4 hrs at 37° C. in a 5% CO2 humidified incubator. Cells remaining on the top of the filter were removed. Cells on the bottom surface of the filter were fixed, stained and mounted. The number of migrating cells per well was counted microscopically.
# endothelial cells = test: Competitive displacement of [125I]TIMP3 from the surface of endothelial cells; assay type: binding; details: unlabeled VEGF 2 μg/ml, TIMP3 10 μg/ml
# Experimental: Immunoprecipitation of cell lysates with antibodies specific for TIMP3 was followed by immunoblotting with antibodies specific for KDR (top). As a control for KDR receptor, cell lysates were immunoprecipitated with anti-bodies specific for KDR and probed with antibodies specific for KDR Immunoprecipitation with antibodies specific for KDR and immunoblotting with antibodies specific for TIMP3 (bottom) were carried out on PAE-KDR cells exposed to recombinant TIMP3 or PAE-KDR-vector and PAE-KDR cells overexpressing TIMP3, to confirm the interaction. […] Competition with unlabeled TIMP3 was carried out to ensure specificity. […] (E) In vivo interaction of KDR and TIMP3 in human placenta. Immunoprecipitation using antibodies specific TIMP3 (top) and KDR (bottom) was followed by immunoblotting with antibodies specific for KDR (top) and TIMP3 (bottom).
# PAEKDR cells [3] = test: VEGF-stimulated proliferation ([3H]thymidine) of transfected PAEKDR cells; assay type: cell-based, porcine; details: mock cells
# Experimental: Cells were seeded at a density of 5000 cells/well in 24 well culture plates and cultured for 24 h in growth medium. […] High molecular weight DNA was precipitated using 5% trichloroacetic acid at 4° C. for 30 min After two washes with ice-cold H2O, 3H radioactivity was solubilized in 1 N NaOH for 20 min at room temperature, acidified by addition of 2 N HCl, and measured using a liquid scintillation counter. Each sample was assayed in triplicate and the assays were repeated at least twice.
# [4] = system: chick embryo chorioallantoic membrane (CAM); test: Chick embryo chorioallantoic membrane (CAM) assay of VEGF-mediated angiogenesis; assay type: in vivo, chicken
# Source text: The CAM assay was done as described with slight modifications. Fertilized 3-day-old white Leghorn eggs (Sunnyside, Beaver Dam, Wis.) were cracked and embryos with the yolk intact were placed in glass-bottomed Petri dishes. […] Angiogenesis was reported as the angiogenic index (mean number of tertiary branchpoints from experimental conditions minus the mean number of branchpoints from buffer controls with no angiogenic stimulator).
# VEGFR1 (FLT-1) = VEGFR1 (FLT-1) (Homo sapiens, UniProt P17948); details: read-out: Kd of VEGF binding to VEGFR1; cited from earlier work
# Sequence of VEGFR1 (FLT-1) (P17948 27-1338, species assumed): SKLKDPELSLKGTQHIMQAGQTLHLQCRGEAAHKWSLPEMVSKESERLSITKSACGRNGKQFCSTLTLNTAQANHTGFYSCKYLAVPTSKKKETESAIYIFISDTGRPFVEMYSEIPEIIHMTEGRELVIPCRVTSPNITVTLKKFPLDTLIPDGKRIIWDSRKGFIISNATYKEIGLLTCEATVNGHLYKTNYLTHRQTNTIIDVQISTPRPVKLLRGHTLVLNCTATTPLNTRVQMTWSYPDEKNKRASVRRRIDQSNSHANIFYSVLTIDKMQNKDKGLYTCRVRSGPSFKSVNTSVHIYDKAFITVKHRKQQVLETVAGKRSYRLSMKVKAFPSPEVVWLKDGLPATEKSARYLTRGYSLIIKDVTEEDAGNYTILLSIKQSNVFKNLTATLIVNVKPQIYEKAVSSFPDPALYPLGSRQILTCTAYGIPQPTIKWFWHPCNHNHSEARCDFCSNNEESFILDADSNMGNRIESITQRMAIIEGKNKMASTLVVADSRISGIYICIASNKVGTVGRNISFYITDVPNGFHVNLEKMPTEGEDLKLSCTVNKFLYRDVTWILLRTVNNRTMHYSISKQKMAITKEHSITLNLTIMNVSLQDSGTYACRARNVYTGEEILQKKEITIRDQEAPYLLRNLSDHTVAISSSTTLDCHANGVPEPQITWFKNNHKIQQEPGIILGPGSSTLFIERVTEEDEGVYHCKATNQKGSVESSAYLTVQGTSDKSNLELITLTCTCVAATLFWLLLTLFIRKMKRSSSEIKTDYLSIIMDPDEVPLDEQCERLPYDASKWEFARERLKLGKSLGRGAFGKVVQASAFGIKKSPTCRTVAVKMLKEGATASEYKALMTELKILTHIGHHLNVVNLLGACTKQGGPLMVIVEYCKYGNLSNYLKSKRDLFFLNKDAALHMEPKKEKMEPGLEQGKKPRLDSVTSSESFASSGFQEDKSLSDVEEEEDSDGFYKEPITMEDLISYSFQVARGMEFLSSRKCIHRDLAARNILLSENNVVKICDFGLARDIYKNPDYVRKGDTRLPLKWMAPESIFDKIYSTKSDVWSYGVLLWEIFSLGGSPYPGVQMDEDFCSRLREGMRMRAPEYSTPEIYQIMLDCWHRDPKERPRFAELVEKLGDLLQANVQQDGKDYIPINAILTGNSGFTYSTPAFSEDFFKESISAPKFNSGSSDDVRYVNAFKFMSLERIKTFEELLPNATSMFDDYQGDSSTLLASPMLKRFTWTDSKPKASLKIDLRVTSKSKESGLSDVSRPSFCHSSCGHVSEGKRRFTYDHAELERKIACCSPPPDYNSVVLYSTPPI
# PAE-KDR cells = test: Endothelial cell migration toward VEGF (modified Boyden chamber); assay type: cell-based, porcine; details: added exogenously; VEGF165 10 ng/ml
# Experimental: (B) Comparison of the effects of rTIMP3, rTIMP1 and BB3103 on VEGF165-induced migration of PAE-KDR cells. […] In all migration experiments, migrating cell number is expressed as mean±s.e.m. of quadruplicate samples. All experiments were done in triplicate. Open symbols, KDR-vector; closed symbols, KDR-TIMP3.*, P<0.01; **, P<0.05.
# A modified Boyden chamber assay for migration and proliferation assays were carried out as described.
# VEGF = target: T2, VEGF (Homo sapiens, UniProt P15692); test: Solid-phase direct binding of [125I]VEGF to wells coated with TIMPs
# T2 construct: purchased Genentech (gift, not bought)
# T2 sequence (P15692 27-191 isoform P15692-4): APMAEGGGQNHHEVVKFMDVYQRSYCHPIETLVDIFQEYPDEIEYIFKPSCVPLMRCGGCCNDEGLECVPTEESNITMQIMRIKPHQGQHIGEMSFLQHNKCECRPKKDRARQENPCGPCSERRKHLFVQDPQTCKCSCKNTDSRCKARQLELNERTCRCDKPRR
# [5] = target: T3, soluble KDR-IgG (receptor IgG chimeric protein) (UniProt P35968 20-764, limits assumed); test: solid-phase assay: displacement of [125I]VEGF165 from soluble KDR-IgG by TIMP3
# T3 construct: Bought from R&D Systems; also called KDR-Fc; sKDR; not shown: IgG Fc portion
# T3 sequence (P35968 20-764 limits assumed, change not shown): as the sequence (P35968 20-764 limits assumed) above
# Experimental: Soluble KDR-Fc or FLT1-Fc (50 ng) was added to each well. […] After washing, the bound protein was solubilized with 1% SDS and 1 M NaOH and radioactivity measured in a γ-counter.
# [6] = target: T4, KDR (VEGFR2) on the surface of PAE-KDR cells (human, UniProt P35968 20-1356); test: inhibition of [125I]VEGF binding to PAE-KDR cells by pretreatment with TIMP3
# T4 construct: whole, on cells; also called KDR-vector
# T4 sequence (P35968 20-1356): as the sequence (P35968 20-1356) above
# recombinant human TIMP2 = target: T5, recombinant human TIMP2 (human, UniProt P16035 27-220); test: solid-phase binding of [125I]VEGF to wells coated with TIMP2
# T5 construct: also called rTIMP2
# [7] = target: B1; test: solid-phase binding of [125I]VEGF to wells coated with TIMP3
# recombinant human TIMP1 = target: T6, recombinant human TIMP1 (human, UniProt P01033 24-207); test: solid-phase binding of [125I]VEGF to wells coated with TIMP1
# T6 construct: also called rTIMP1
# T6 sequence (P01033 24-207 limits assumed): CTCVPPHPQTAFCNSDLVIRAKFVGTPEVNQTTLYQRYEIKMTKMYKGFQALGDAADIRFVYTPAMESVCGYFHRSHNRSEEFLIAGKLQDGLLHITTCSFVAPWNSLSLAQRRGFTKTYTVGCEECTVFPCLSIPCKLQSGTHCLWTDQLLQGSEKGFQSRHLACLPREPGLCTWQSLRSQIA
molecule,measurement,setting,value
"O=C(NO)[C@@H](Cc1ccccc1)NS(=O)(=O)c1ccc(-c2ccccc2)cc1 [MMP-2 and MMP-9 inhibitor, (2R)-[(4-biphenylylsulfonyl)amino]-N-hydroxy-3-phenylpropionamide]",inhibition of binding of VEGF to PAE-KDR cells,KDR,could not inhibit binding of VEGF
"GYCSWYRGWAPPDKSIINATDP (listed as Homo sapiens) [tail peptide, synthetic peptide from the tail portion of the C-terminal region of TIMP-3]","inhibition of VEGF binding to KDR at lower doses, comparison of peptides",KDR (VEGFR2); 0.03 μM and 0.1 μM,inhibited VEGF binding better than the Loop 6 peptide and the Loop 5 peptide
same,inhibition of VEGF binding to KDR,KDR (VEGFR2); 3 μM,inhibit VEGF binding
same,inhibition of VEGF binding to KDR compared with recombinant TIMP-3,KDR (VEGFR2); 3 μM,same levels as recombinant TIMP-3
same,"inhibition of CNV (fluorescein dextran, whole mount retina)",[1],inhibit CNV
VEGF [reference compound],VEGF concentration of maximum migratory effect,PAEKDR cells [2],50 ng/mL
same,inhibition of binding of labeled TIMP3 to the surface of endothelial cells,endothelial cells,could inhibit the binding of labeled TIMP3
same,VEGF concentration of maximum proliferative activity,PAEKDR cells [3],15 ng/mL
same,angiogenic index (tertiary branchpoints of capillaries),[4]; VEGF alone,190±5
same,Kd,VEGFR1 (FLT-1),0.015 to 0.1 nM
"KNECLWTDMLSNFGYPGYQSKHYACIRQKG (listed as Homo sapiens) [loop 6 peptide, synthetic peptide from loop-6 of the C-terminal region of TIMP-3]",inhibition of VEGF binding to KDR,KDR (VEGFR2); 3 μM,inhibit VEGF binding
same,"inhibition of CNV (fluorescein dextran, whole mount retina)",[1],inhibit CNV
TIMP1: recombinant human TIMP1 expressed in NSO myeloma cells [reference compound],inhibition of endothelial cell migration toward VEGF,PAE-KDR cells,not observed
same,inhibition of binding of VEGF to PAE-KDR cells,KDR,could not inhibit the binding of VEGF to KDR
same,direct binding of [125I]VEGF to coated TIMP,VEGF,did not detect direct binding
same,angiogenic index (tertiary branchpoints of capillaries),[4]; VEGF plus inhibitor,172±8
"C-terminal TIMP3: chimera of residues 1-126 of TIMP-2 and residues 122-188 of TIMP3 representing the isolated C-terminal domain of TIMP3 (protein, listed as Homo sapiens) CSCSPVHPQQAFCNADVVIRAKAVSEKEVDSGNDIYGNPIKRIQYEIKQIKMFKGPEKDIEFIYTAPSSAVCGVSLDVGGKKEYLIAGKAEGDGKMHITLCDFIVPWDTLSTTQKKSLNHRYQMGCCKIKSCYYLPCFVTSKNECLWTDMLSNFGYPGYQSKHYACIRQKGGYCSWYRGWAPPDKSIINATDP",inhibition of VEGF binding to KDR by TIMP3 domains,KDR (VEGFR2); preliminary studies,inhibits binding of VEGF to KDR
B1,IC50,[5],2.9 µg/mL
same,IC50,[6],3.3 to 4.5 µg/mL
"recombinant human VEGF165 (ligand, UniProt P15692-4 27-191, looked up) APMAEGGGQNHHEVVKFMDVYQRSYCHPIETLVDIFQEYPDEIEYIFKPSCVPLMRCGGCCNDEGLECVPTEESNITMQIMRIKPHQGQHIGEMSFLQHNKCECRPKKDRARQENPCGPCSERRKHLFVQDPQTCKCSCKNTDSRCKARQLELNERTCRCDKPRR",binding result,recombinant human TIMP2,no binding
same,binding result,[7],no binding
same,binding result,recombinant human TIMP1,no binding
